# From paper PMC6134404 (Organic & biomolecular chemistry, 2018)
# Tests used:
# [1] = system: C=CC(C)(C)[C@@]12C=C(O)C(=O)N3/C(=C/c4cnc[nH]4)C(=O)N[C@]31N(OC)c1ccccc12; experiment: HPLC initial-velocity assay, Michaelis-Menten fit; type: biochemical, Penicillium oxalicum; conditions: 0.9 nM OxaC, 0.5 mM SAM, 50 mM Na/K phosphate pH 8.0, 23 °C
# [2] = molecular target: T1, OxaC (Penicillium oxalicum, UniProt A0A1B2TT09); experiment: X-ray crystal structure, […] Å; type: binding
# [3] = molecular target: T1, OxaC; experiment: X-ray crystal structure, […] Å; type: binding; remark: listed apart in the source
# [4] = molecular target: the molecule itself; experiment: crystal structure
molecule,measurement,setting,value
OxaC (Penicillium oxalicum),Km,[1],3.1 ± 0.9 µM
same,kcat,[1],1.3 ± 0.2 s⁻¹
same,kcat/Km,[1],420000 M⁻¹ s⁻¹
Nc1ncnc2c1ncn2[C@@H]1O[C@H](CSCC[C@H](N)C(=O)O)[C@@H](O)[C@H]1O [S-adenosyl-L-homocysteine],"X-ray crystal structure, 2.50 Å","[2]; SAM site, product complex with oxaline",a product complex containing SAH and oxaline
"C=CC(C)(C)[C@@]12C=C(O)C(=O)N3/C(=C/c4cnc[nH]4)C(=O)N[C@]31N(OC)c1ccccc12 [compound 2, meleagrin]","X-ray crystal structure, 2.95 Å",[3]; pseudo-Michaelis complex with sinefungin,a pseudo-Michaelis complex composed of the SAM analog sinefungin and the natural substrate meleagrin
Nc1ncnc2c1ncn2[C@@H]1O[C@H](C[C@@H](N)CC[C@H](N)C(=O)O)[C@@H](O)[C@H]1O [sinefungin],"X-ray crystal structure, 2.95 Å","[3]; SAM site, complex with meleagrin",a pseudo-Michaelis complex composed of the SAM analog sinefungin and the natural substrate meleagrin
"C=CC(C)(C)[C@]12C=C(OC)C(=O)N3/C(=C/c4cnc[nH]4)C(=O)N[C@@]31N(OC)c1ccccc12 [compound 3, oxaline]","X-ray crystal structure, 2.50 Å","[2]; product complex with SAH, co-crystallised with meleagrin and SAM",a product complex containing SAH and oxaline
OxaC (enzyme) MGSSHHHHHHHHGASENLYFQGASMTFSNADAQKIAVQKDVDEVVAAAQRFLHGSGNATSDEAKVDLQKKASNLVQTIRGPIPAALSSMEDIVKVASLRTLFEAGVFHAMPKGGASMTASEISAQTGLDKGILIRLMRAVTPLGPFHEVGEEEYAHTPFSEAYLTADIAGCFPVMSNFIFGPVLQICDFLRQNNWKDAITTRNNPFTLAHNCPGETMFEHLYKNSKNVAPVTKAEAADVDQIAMDLYPWEERLSDAKGSNATLVDIAGSHGNGTRAIMALAPKLNGCRFIVQDLEPVIGEHSQALRAEGIEPQVYDFLKQEQPVHGASIYYFRRVFHDWPDLPEGKKILDNTRAAMSREHSRILIHDIIVPEIGATMSHAWQDLSLMAIGGMERTEKDFARLLDIAGLALVKVWRKPGDMMGIIEARLK,stoichiometry N,[4],2
